One series has as its system RAW264.7 cells. Put plainly: Release of TNF-α from RAW264.7 cells (ELISA). It counts as cell-based, murine. As to conditions: 0.5, 1 or 2 μg/ml, 8 hours. The protocol: In a RPMI1640 medium to which 10% heat inactivated FBS, 0.15% sodium bicarbonate, 100 units/ml penicillin, […] streptomycin and 2 mML-glutamine were added, murine macrophage-like RAW264.7 cells were proliferated in humidified air containing 5% CO2 at 37° C. Subsequently, cells were seeded on a 24-well or 96-well culture plate at a density of 5×10^5 cells/well, and cultured for 24 hours before use.
The RAW264.7 cells were seeded on a 24-well plate at a density of 2.5×10^5 cells/well, and incubated for 24 hours before treatment. Then, ssDNA, dsDNA, or several kinds of polypodnas diluted in 0.5 ml of Opti-MEM were added to the cells at a final concentration of 0.5, 1 or 2 μg/ml. The cells were incubated for 8 hours, the supernatant was recovered and stored at −70° C. before use. The concentrations of TNF-α and IL-6 in the supernatant were measured by Enzyme-Linked Immunosorbent Assay (ELISA) using an OptEIA™ set (Pharmingen, San Diego, Calif., USA).
The same experiment as in Example 22 was carried out except that each poolypodna preparation was prepared in the same manner as in Example 1 by using the sequences in Table 1. However, the added DNA was equal amount in each case.

Series [1] can be described thus: Release of encapsulated OVA from gel. It counts as physicochemical. As to conditions: DNA 0.5 mM. The protocol:
By controlling the nature and salt concentration of protruding ends of Tetrapodna, the change of the releasing rate of an encapsulated compound in a gel was examined. Specifically, Tetrapodna (4-18-18) (SEQ ID NOs.: 2, 4, 5 and 6) including a cohesive protruding end and Tetrapodna (4-18-18) (SEQ ID NOs.: 58, 59, 60 and 61) as a control including a non-cohesive protruding end were used. In an aqueous solution of Tetrapodna which had been prepared such that the DNA concentration was 0.5 mM, the NaCl concentration was adjusted to 5 mM or 150 mM. When the NaCl concentration was increased, egg albumin (OVA, concentration of 2.5 μg/μl) was added as an encapsulated substance to cause gelation, and then the percentage of OVA released from the gel with the passage of time was measured.

Series [2] can be described thus: Gel formation in a living body after subcutaneous injection of sol. Format: in vivo. The following applies: total DNA 2 mM, NaCl 5 mM, back of mouse. An excerpt:
The hydrogel produced in Example 1 was able to be prepared in a sol state by appropriately adjusting conditions. Therefore, the hydrogel was able to be administered in a living body by injection. […] Thus, it was confirmed that a gel is formed in a living body only by preparing the hydrogel in accordance with the present invention in a sol state and administering the hydrogel to a living body.

A short description of series [3]: Formation of hydrogel from nucleic acid units without ligase. Format: physicochemical. The following applies: without DNA ligase. The procedure: A NaCl solution was added to an ODN solution (polypodna) such that the final Na^+ concentration was 5 to 150 mM. The gel formation and the gel strength were measured by a gel strength analyzer (gel strength meter, Nakayamadenki Co., Ltd, Osaka).
A structure to be a hydrogel (a nucleic acid monomer and an estimated nucleic acid unit) in conditions at room temperature, at 5 mM to 150 mM sodium chloride concentration (150 mM is substantially physiological concentration), and not containing a DNA ligase was elucidated. […] For convenience, nucleic acid units estimated to be formed according to the number of nucleic acid monomers capable of constituting the nucleic acid unit were represented by xxxpodna (xxxpod-like structure forming nucleic acid, xxx is substituted by tri (3), tetra (4) and the like, according to the number of nucleic acid monomers capable of constituting the nucleic acid unit). In Table 2 described below, xxxpodna is an estimated nucleic acid unit, and each of xxx-Y-N is a nucleic acid monomer that can be a constituent element of the nucleic acid unit (xxxpodna) which is mentioned above thereof. When the descriptions of Ys are different from each other, different nucleic acid units can be formed. N denotes numbering of nucleic acid monomers constituting each of the estimated nucleic acid units.
Unlike (1-1) described above, gelation can be controlled by using a nucleic acid monomer including cohesive protruding ends which are not attached to themselves (that is, not palindrome sequence).

A short description of series [4]: Temperature conditions for gel formation. It counts as physicochemical. As to conditions: NaCl 150 mM. The protocol: Furthermore, we investigated a possibility that temperature conditions are also involved in gelation. Tetrapodna (4-18-18) (SEQ ID NOs.: 2, 4, 5 and 6), Hexapodna (4-18-18) (SEQ ID NOs.: 2, 3, 4, 7, 9 and 10) and Tetrapodna (8-16-16) (SEQ ID NOs.: 22, 23, 24 and 25) were used to examine the temperature conditions for allowing a gel be present or a sol to be present by fixing the NaCl concentration at 150 mM and changing the DNA concentration variously.

Series [5] can be described thus: Evaluation of gelation at various DNA concentrations and NaCl concentrations. Also noted: key: ◯: the mark “∘” is given to cases in which gelation was observed; X: the mark “x” is given to cases of a solution state (sol-state). Format: physicochemical. The procedure: […] The gel formation and the gel strength were measured by a gel strength analyzer (gel strength meter, Nakayamadenki Co., Ltd, Osaka).
Specifically, by changing the DNA concentrations of an aqueous solution of Tripodona (4-18-18) (X=4) (SEQ ID NOs.: 1, 2 and 3), Tetrapodna (4-18-18) (X=4) (SEQ ID NOs.: 2, 4, 5 and 6), Hexapodna (4-18-18) (X=4) (SEQ ID NOs.: 2, 3, 4, 7, 9 and 10) and Tetrapodna (8-16-16) (X=8) (SEQ ID NOs.: 22, 23, 24 and 25) as shown in the lines of Table 4, and by changing the NaCl concentration as shown in the rows of Table 4, whether or not a gel is formed at various DNA concentrations and NaCl concentrations was evaluated. The results are shown such that the mark “∘” is given to cases in which gelation was observed, and the mark “x” is given to cases of a solution state (sol-state).

The subject of series [6] is mouse dendritic cell DC2.4. Put plainly: Stimulation of dendritic cells by gel. Format: cell-based. As to conditions: gel brought into contact with DC2.4.
Series [7] in a line: Percentage of remaining gels with the passage of time. It counts as physicochemical. The following applies: DNA 0.5 mM, NaCl 150 mM. The procedure:
Gels were formed by adjusting the NaCl concentration at 150 mM in an aqueous solution containing Tetrapodna (12-14-14) (SEQ ID NOs.: 30, 31, 32 and 33) at a DNA concentration of 0.1 mM, 0.25 mM or 0.5 mM, and the percentage of the remaining gels was measured with the passage of time. The results are shown in a graph in the left upper side of FIG. 17.
Gels were formed in conditions at a certain DNA concentration (0.5 mM) and a certain NaCl concentration (150 mM), and the percentage of the remaining gels was measured with the passage of time by using Tetrapodna (respectively, SEQ ID NOs.: 2, 4, 5 and 6, SEQ ID NOs.: 18, 19, 20 and 21, SEQ ID NOs.: 22, 23, 24 and 25, SEQ ID NOs.: 26, 27, 28 and 29, as well as SEQ ID NOs.: 30, 31, 32 and 33) having various lengths of the cohesive protruding end (4, 6, 8, 10 or 12 bases). The results are shown in a graph in the left lower side of FIG. 17. […] When 12 hours had passed, the percentage of the remaining gels became about 50%.
Gels were formed by variously changing the NaCl concentrations (5 mM, 50 mM, 100 mM or 150 mM) of an aqueous solution containing Tetrapodna (12-14-14) (SEQ ID NOs.: 30, 31, 32 and 33) at a DNA concentration of 0.5 mM, and the percentage of the remaining gels was measured with the passage of time. The results are shown in a graph in the right upper side of FIG. 17. […] At a low salt concentration (5 mM), almost all the formed gels became in a sol state when about 6 hours had passed. When the salt concentration was increased to 50 mM, solation tendency was weakened, a change from a gel into a sol occurred moderately (about 40% when 12 hours had passed).
The percentage of the remaining gels was measured with the passage of time in the same manner as in (8-3) except that Tetrapodna (4-18-18) (SEQ ID NOs.: 2, 4, 5 and 6) was used instead of Tetrapodna (12-14-14) (SEQ ID NOs.: 30, 31, 32 and 33). The results are shown in a graph in the right lower side of FIG. 17. […] In (8-3), Tetrapodna (12-14-14) (the length of the cohesive protruding end is 12 bases) was used. In (8-4), Tetrapodna (4-18-18) (the length of the cohesive protruding end is 4 bases) was used.

From patent publication US9393309B2, “Self-gelatinizable nucleic acid” (Kyoto University, priority 2011, dated 2016) come the findings set out here.

Where a chain is given by its changes, count along the chain named.

“ssDNA36: single strand 36 mer ODN, SEQ ID No. 108 (DNA TCGCTGACGTTGCAGACATCACGTTGACGCTGTCGA; unmodified DNA) [reference compound]”: the TNF-α release entry in the series with RAW264.7 cells is on record as “the TNF-α release hardly occurred”.

B1: control Tetrapodna: Tetrapodna (4-18-18), SEQ ID NOs.: 58, 59, 60 and 61, non-cohesive protruding end, control (nucleic acid)
DNA 1: AGTCTCGCTGACGTTGCAGACATCACGTTGACGCTGTCGA
DNA 2: AGTCTCGACAGCGTCAACGTGAAACGTGAAGCGTCTGCGA
DNA 3: AGTCTCGCAGACGCTTCACGTTGCAGACAGACGTTGACGA
DNA 4: AGTCTCGTCAACGTCTGTCTGCTGTCTGCAACGTCAGCGA
modifications: unmodified DNA
As to B1, the gelation entry in series [1] (NaCl 5 mM or 150 mM) was “Gelation hardly found”. The “percentage of OVA released from the first” value in series [1] (OVA 2.5 μg/μl) is around 100%. In series [2], the “gel formation in a living body” value is “a gel was not formed in a living body”.

B2: Hexapodna(4-18-18): six ODNs, SEQ ID NOs.: 2, 3, 4, 7, 9 and 10, 4-base cohesive protruding end (nucleic acid)
DNA 1: B1 DNA 2 with G2C, T3G, C4T
DNA 2: ACGTTCGCAGACGCTTCACGTTGAGCACAGACGTTGACGA
DNA 3: B1 DNA 1 with G2C, T3G, C4T
DNA 4: ACGTTCGTCAACGTCTGTGCTCGCAGCGTCTTAACGTCGA
DNA 5: ACGTTCGACGTTAAGACGCTGCAGACGTTCAGGACTACGA
DNA 6: ACGTTCGTAGTCCTGAACGTCTTGTCTGCAACGTCAGCGA
modifications: unmodified DNA
In the case of B2, in series [3], the gel formation entry is recorded as “gels can be prepared”. The “temperature at which gel is present” value in series [4] (DNA concentration 1.0 mM) is “gel at 65 °C”; in series [4] (DNA concentration 0.3-0.8 mM) it was “gel at 55 °C”. Besides, the “temperature at which sol is present” value is “sol at 75 °C” in series [4] (DNA concentration 1.0 mM) and “sol at 65 °C” in series [4] (DNA concentration 0.3-0.8 mM). Moreover, the gelation entry in series [5] (Na+ 2 mM, DNA 0.8 mM) is given as “◯”; in series [5] (Na+ 20 mM, DNA 0.7 mM), “X”; in series [5] (Na+ 50 mM, DNA 0.5 mM), “X”; in series [5] (Na+ 50 mM, DNA 0.6 mM) it was “X”; in series [5] (Na+ 50 mM, DNA 0.7 mM), “◯”; in series [5] (Na+ 100 mM, DNA 0.4 mM), “X”. Moreover, the gelation entry is “◯” in series [5] (Na+ 100 mM, DNA 0.5 mM); “◯” in series [5] (Na+ 100 mM, DNA 0.6 mM); “X” in series [5] (Na+ 150 mM, DNA 0.3 mM); “◯” in series [5] (Na+ 150 mM, DNA 0.4 mM).

B3: Tetrapodna (4-18-18) which does not contain a CpG motif: four ODNs, SEQ ID NOs.: 14, 15, 16 and 17, not containing CpG (nucleic acid)
DNA 1: AGCTAGGCACCGTAGTCAATCGCCGATGTGTCCAAAGCCT
DNA 2: AGCTAGGCTTTGGACACATCGGTGCTCCTACCGTACTCCT
DNA 3: AGCTAGGAGTACGGTAGGAGCAGTTTCGGCATGTCCACCT
DNA 4: AGCTAGGTGGACATGCCGAAACCGATTGACTACGGTGCCT
modifications: DNA, all phosphodiester, methylation of C not given here
Consider B3, for which, in series [6], the “immunological stimulation of dendritic cell” value is “did not immunologically stimulate a mouse dendritic cell”.

B4: Tetrapodna(8-16-16): four ODNs, SEQ ID NOs.: 22, 23, 24 and 25, 8-base cohesive protruding end (nucleic acid)
DNA 1: ACGTACGTTAGCACGACATCAGCGTCTGACGCTTCGTCGA
DNA 2: ACGTACGTTCGACGAAGCGTCAGATCTCGTCAACGCTGCA
DNA 3: ACGTACGTTGCAGCGTTGACGAGACAGACGCTTGACGCTA
DNA 4: ACGTACGTTAGCGTCAAGCGTCTGCGCTGATGTCGTGCTA
modifications: unmodified DNA
For B4, in series [7], the “initial percentage of gels” value is recorded as “about 100%” and the “percentage of the remaining gels with the passage of time” value is on record as “decreased with the passage of time only slightly”. For the same molecule, the gel formation entry in series [3] was “gels can be prepared”. For the same molecule, in series [4] (DNA concentration 0.5 mM), the “temperature at which gel is present” value is “gel at 55 °C” and the “temperature at which sol is present” value was “sol at 75 °C”. Further, the gelation entry in series [5] (Na+ 2 mM, DNA 0.6 mM) is given as “◯”. Moreover, the gelation result in series [5] (Na+ 10 mM, DNA 0.5 mM) is “X”. The gelation result in series [5] (Na+ 20 mM, DNA 0.5 mM) was “◯”.
